These results are taken from paper PMC7969741.

In this experiment the target is αV integrin (human (endogenous in SV40 immortalized human chondrocytes)).

Non-standard residues stand in square brackets, D forms with d.

As to cyclo(RGD[dF]K) (also: conjugated to 3' end of Cy3-labelled 18-nt ssDNA) [cyclic peptide RGDfK (cRGDfK)], the tension gauge tether (TGT) assay: rupture of RGDfK-dsDNA tethers of 43 and 54 pN tension tolerance and loss of cell attachment, SV40 chondrocytes prechallenged with shear stress is above 43 pN.
